Experimental data: the supplement of paper PMC10567573
± gives the standard deviation.

Experiment: protein stability index of a GFP-peptide fusion (GPS, HEK-293T) (PSI 1-6); higher = more stable
Conditions: c terminus: a fixed tail appended
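Further: 24-mer peptide tiles fused after GFP, lentivirally expressed, FACS-sorted into six equal bins by GFP/DsRed ratio, decoded by Illumina sequencing, PSI is the read-weighted mean bin number.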

Sequence | protein stability index (treatment: DMSO) | protein stability index (treatment: MLN4924 1 uM, 8 h)
ENYETVISLALFVLPKPKVISCLE [ZNF75A] | 3.11 ± 0.47 | 3.46 ± 0.28
EPVLTQTSEQAPSSAPRDVQARML [PTPRD] | 5.13 ± 0.26 | 5.31 ± 0.26
EQGEPLWTLEDEIHSPAHPEIEKA [ZNF649] | 5.44 ± 0.44 | 5.57 ± 0.22
EQPITDFCSVIRINSTAPFEEQEN [ZNF277] | 4.4 ± 0.23 | 4.46 ± 0.3
EQSLLSRWNPWSTEVPYATFTEHP [TPRG1] | 3.13 ± 0.22 | 3.06 ± 0.16
ERDFPCPVCRKTSRYRSLRPNRQL [TRIM39] | 2.93 ± 0.46 | 3.23 ± 0.45
ERIVVAGNNEDVSFSRPADLDLIQ [MFF] | 4.96 ± 0.075 | 4.21 ± 0.32
ESKKNRVEINDLDPEVFKEMMRFI [SPOPL] | 1.55 ± 0.31 | 
ESLIVFMEQVHRGIKGLVRDSHGK [CPXM2] | 2.26 ± 0.58 | 2.13 ± 0.76
ESMYGDFQEAMTHLQHKLICTRKP [TENT5D] | 3.54 ± 0.17 | 3.58 ± 0.38
ESPRKRKKATEAIDSLRKSKRLRN [FBXO28] | 5.3 ± 0.23 | 5.33 ± 0.14
ETAGQKPLSVHRPPTSGCLGPVPR [TSPAN10] | 4.25 ± 0.46 | 4.22 ± 0.19
ETEDVDYGETDFHKQDGKAGLFSQ [TMEM40] | 5.3 ± 0.27 | 5.36 ± 0.2
EVAGGGTPLLIAARYGHLDVVEYL [FEM1A] | 2.46 ± 0.19 | 2.32 ± 0.34
EVELAYQEAMFNMATLNRTAAGLM [SEPHS2] | 2.42 ± 0.46 | 2.56 ± 0.68
EVGDPAPLGAGNLGPELIKESNAN [DPCD] | 5.31 ± 0.31 | 5.28 ± 0.1
EYSKFCRMSYQDPAQLSCLPYLEH [NFE2L1] | 2.52 ± 0.56 | 1.89 ± 0.42
FATQTEELNKQVVSSSEQLQSCQA [KRT34] | 4.87 ± 0.28 | 4.86 ± 0.33
FCGAPPVTPIIVLSIINFFERLCL [PHTF1] | 2.87 ± 0.47 | 2.5 ± 0.46
FDPAEKYKMDHRRRGIALIFNHER [CASP6] | 2.89 ± 0.2 | 3.19 ± 0.39
FEHEMEESKKNRVEINDLDPEVFK [SPOPL] | 4.99 ± 0.39 | 5.02 ± 0.32
FEPHSGEDYSRDEDHIAHIIELLG [SRPK2] | 3.3 ± 0.19 | 3.63 ± 0.18
FGAVNLSSPSNMLPVRPQTNALIG [CLINT1] | 3.23 ± 0.12 | 3.26 ± 0.41

Sequence | protein stability index (treatment: DMSO) | protein stability index (treatment: MLN4924 1 uM, 8 h)
FGHLSVFSTSKWNHLLHHFVIGHL [FADS1] | 2.58 ± 0.41 | 2.76 ± 0.78
FGVKYNPYTRSIQILKDTKSITSA [TPH1] | 2.43 ± 0.63 | 2.46 ± 0.11
FHRLDEPPHICWDETHFGKMGSYY [POMT2] | 2.42 ± 0.51 | 2.36 ± 0.4
FIYTAKLSLNMDNLQDTLEAASFL [KLHL13] | 2.65 ± 0.54 | 2.96 ± 0.48
FLDKSGSHGYDMSTFIRRYSRYLN [SNAP91] | 2.38 ± 0.4 | 2.64 ± 0.49
FLDLERPPTTPQNEEIRAVGRLKR [MFF] |  | 4.07 ± 0.3
FLGSSFSPVRCGGPGDASPRGCGA [WEE1] | 2.27 ± 0.34 | 2.61 ± 0.48
FLLVQRFGELMRKLWNPRNFKAHV [USP39] | 2.47 ± 0.51 | 2.54 ± 0.7
FLVANFSQIETLTSVFQKKLCTAH [MATN2] | 2.6 ± 0.56 | 2.52 ± 0.49
FNDVAKFLKQGDSADETTAHKTEE [CMTM3] | 4.97 ± 0.23 | 5.13 ± 0.12
FNIGLPDNIVNCNEFLCTLQKKLD [ZNF277] | 2.48 ± 0.32 | 2.51 ± 0.35
FRIYKSVIQAVQKSEEGHPFKAYL [RTN3] | 2.4 ± 0.23 | 2.29 ± 0.21
FRSGALDLDSCSRDGALLGCSLTA [MYORG] | 2.58 ± 0.12 | 2.34 ± 0.32
FSDLQVYSYRRLGEEALSLQALDP [SLC22A15] | 2.73 ± 0.34 | 2.84 ± 0.31
FSKNLKLGIHEDSTNRRRLSELLR [HSP90AB1] |  | 2.43 ± 0.39
FSRVCRLHRGQLSLFCLEDKELLC [TRIM35] | 2.22 ± 0.56 | 2.19 ± 0.18
FTGVITQGRNSLWLSDWVTSYKVM [CPXM2] | 3.21 ± 0.45 | 2.94 ± 0.84
FTSGTGHFTAMVWKNTKKMGVGKA [GLIPR2] | 2.66 ± 0.29 | 2.74 ± 0.2
FVFFVLLNMFLAIINDTYSEVKEE [PKD2L1] | 3.36 ± 0.23 | 3.12 ± 0.26
FYHDHTKIIICSQNEEYLLTYINE [PLK2] | 2.57 ± 0.59 | 2.58 ± 0.54
GAARSFQEVTEPAVVAVDRQAIFP [PXN] | 4.1 ± 0.26 | 4.04 ± 0.59
GACPGADEAGGGAEGDSWEEEGFG [WEE1] | 5.35 ± 0.24 | 5.54 ± 0.21
GAGAGSSLLDVAEPGGPGWLPESD [SMAD6] | 5.23 ± 0.19 | 5.01 ± 0.25

Sequence | protein stability index (treatment: DMSO) | protein stability index (treatment: MLN4924 1 uM, 8 h)
GASHVLALSTERELFAWGRGDSGR [NEK8] | 3.38 ± 0.31 | 3.42 ± 0.26
GCANNLLVHHRAAHSNEILIFSVQ [KLHDC2] | 2.49 ± 1 | 2.67 ± 0.58
GCEDEYLVNPTCQVLVKDFTFEGF [ZER1] | 2.89 ± 0.47 | 2.85 ± 0.4
GCFRSQGASLRLAVEDGLQQFKQY [M1AP] | 2.88 ± 0.68 | 2.78 ± 0.074
GCSLHEEDTQRHETYHQQGQCQVL [TCAP] | 4.35 ± 0.14 | 4.32 ± 0.41
GCSSTQGNGRPGRPSQYRPDGLRS [LCOR] | 4.07 ± 0.085 | 4.14 ± 0.17
GDKNEEQVLNAIEAYTEHRPEITS [ZER1] | 5.33 ± 0.2 | 5.16 ± 0.22
GDVCYADVYRDGTGVVEFVRKEDM [SRSF1] | 4.22 ± 0.26 | 4.37 ± 0.042
GEDQWNPNGKHSTNFVSRYDPRFN [KLHL14] | 3.83 ± 0.23 | 3.57 ± 0.41
GEEQVELSTIEELIKDAIVSTQPA [C2CD2L] | 4.69 ± 0.3 | 4.7 ± 0.16
GFGSKNTAFCTHVFPETAFIAVTS [TBX5] | 2.28 ± 0.42 | 2.09 ± 0.3
GFKHRLWVYSGRRGVHCWVCDESV [PRIM1] | 2.81 ± 1.4 | 2.31 ± 0.59
GFVDLLDGENLKNEEETPSCMASL [CDC25A] | 4.64 ± 0.25 | 4.62 ± 0.13
GGFMGYSAENIPGCSSSGSCSQGS [CRY1] | 4.14 ± 0.3 | 4.4 ± 0.28
GGGYSSVRYSDCCERVVINVSGLR [KCNA4] | 2.23 ± 0.26 | 2.34 ± 0.29
GGHTREARIQTLEPDNWMKEVMLF [RSAD1] | 2.51 ± 0.25 | 2.34 ± 0.34
GGIQEGAVTPAGVVNKYQINGLQA [DHCR7] | 3.93 ± 0.27 | 4.17 ± 0.22
GGLGTPLRLPMLNTEVVQVAAGRT [NEK8] | 4.11 ± 0.35 | 4.06 ± 0.31
GGPADLAGLEDEDVIIEVNGVNVL [PDZK1] |  | 4.46 ± 0.32
GGQEEASQEAGLPAGAGPSPTFPA [SEPHS2] | 5.56 ± 0.1 | 5.25 ± 0.23
GGRTALHHAALNGHVEMVNLLLAK [ANKRD44] | 2.76 ± 0.35 | 2.69 ± 0.23
GGTPIRGALQIEQSEESDQGKYEC [PTPRD] | 5.57 ± 0.38 | 5.4 ± 0.31
GGYETFYSEYPECCVDVKPISQEK [DUSP5] | 4.25 ± 0.29 | 4.22 ± 0.18

Sequence | protein stability index (treatment: DMSO) | protein stability index (treatment: MLN4924 1 uM, 8 h)
GHSSSVEMFLYFEDHGLVTCSADH [WDR41] | 2.16 ± 0.34 | 2.25 ± 0.29
GIENEEDTSKQKKMETMYPFIVTL [ZNF449] | 2.39 ± 0.38 | 2.36 ± 0.1
GIGGGIGGGSSRISSVLAGGSCRA [KRT16] | 3.87 ± 0.23 | 4.05 ± 0.24
GILGFNSAEWFITAVGAILAGGLC [ACSBG2] |  | 3.62 ± 0.54
GKDEIEAAVKAAREAFPSWSSRSP [ALDH8A1] | 4.5 ± 0.32 | 4.29 ± 0.23
GKEVSGDQIEDMFEQGKWDVFSEN [STX11] | 4.33 ± 0.31 | 4.31 ± 0.35
GKFIRLKNTSEQDQPMGGWEMIRK [LMNB1] | 3.73 ± 0.083 | 3.7 ± 0.2
GKKRCKDIKRLLVNFMYLQSLLQP [SMG5] | 2.428 ± 0.007 | 2.48 ± 0.41
GKPGDRNCPEFPPPDRTLGCWATD [RSPH3] | 4.03 ± 0.28 | 4.32 ± 0.24
GLADVEANYVIVRAYQYTTLTSVQ [SLC35F2] | 2.24 ± 0.53 | 2.66 ± 0.43
GLPGKVFACLSVLFVTVTAVNLSV [KCNG1] | 3.36 ± 0.17 | 3.053 ± 0.022
GLSGSGVAFVCAFSEALAEGAVKM [PYCR3] | 2.58 ± 0.65 | 2.25 ± 0.34
GMLAPAAGPAFDSDPEISDVDEDE [PPFIA4] | 5.35 ± 0.73 | 5.54 ± 0.24
GNGKNLVDFTFVENVVHGHILAAE [NSDHL] | 3.08 ± 0.36 | 2.91 ± 0.51
GNLEVGEPQSEPVRVLDMVAKLES [FBXO34] | 5.01 ± 0.34 | 4.87 ± 0.2
GPAAFVDYFERNWEPRRDMWVRFR [ZSWIM9] | 2.4 ± 0.12 | 2.46 ± 0.37
GPALAGEPAGSLRELGVWRSLLRL [C2CD2L] | 2.66 ± 0.23 | 2.56 ± 0.03
GPLGDCLRDWEDLQQDFQNIQETH [TMEM120A] | 4.63 ± 0.31 | 4.41 ± 0.32
GPVRSSSGMGGRAPVSRGRDSYGG [RBMX] | 4.32 ± 0.12 | 4.53 ± 0.17
GPYEGGGPVAGLDDSGGPTPSSYA [ZBTB22] | 4.95 ± 0.24 | 4.97 ± 0.17
GQTGTRLTPADKAEHMKRQRHPRL [AUP1] | 4.32 ± 0.18 | 4.6 ± 0.075
GRGSLSSGGQTSWDSGCLAPPSTR [PLEKHN1] | 4.44 ± 0.24 | 4.15 ± 0.35
